Paper PMC5120205 (Nature Communications, 2016)

Experiments:
Details in all cases: both partners purified
IsdB NEAT2 domain = IsdB NEAT2 domain (Staphylococcus aureus USA300, UniProt Q2FHV2); assay: SPR
[1] = target: T1, recombinant full-length IsdB (Staphylococcus aureus USA300, UniProt Q2FHV2); assay: ELISA
T1 construct: not shown: FLAG, C-terminal, kept

[2] = target: T2, recombinant full-length IsdB (Staphylococcus aureus USA300, UniProt Q2FHV2); assay: ELISA; remark: listed apart in the source
T2 construct: not shown: FLAG, C-terminal, kept

[3] = target: T3, recombinant IsdB NEAT2 domain (Staphylococcus aureus USA300, UniProt Q2FHV2); assay: ELISA
T3 construct: not shown: FLAG, C-terminal, kept

[4] = target: T4, recombinant IsdB NEAT1 domain (Staphylococcus aureus USA300, UniProt Q2FHV2); assay: ELISA
T4 construct: not shown: FLAG, C-terminal, kept

[5] = target: T5, recombinant full-length IsdB (Staphylococcus aureus USA300, UniProt Q2FHV2); assay: SPR
T5 construct: not shown: FLAG, C-terminal, kept

[6] = target: T5, recombinant full-length IsdB; assay: BLI; Octet; antibody captured on anti-species sensors (15 ug/ml), 32 nM rIsdB bound, then 1 uM Hb or buffer
[7] = target: T1, recombinant full-length IsdB; assay: SPR; remark: listed apart in the source

B1: D2-06-N2 (IGHV1-69*01 germline-reverted) (antibody, V domains shown)
VH: QVQLVQSGAEVKKPGSSVKVSCKASGGTFSSYAISWVRQAPGQGLEWMGGIIPIFGTANYAQKFQGRVTITADESTSTAYMELSSLRSEDTAVYYCARDRPPGAQFDTWGQGTLVTVSS
VL: not shown
other (IsdB NEAT2 domain): > 600 fold

B2: D2-06-N2 (IGHV1-69*01 germline-reverted) variant F54L (antibody, V domains shown)
VH: QVQLVQSGAEVKKPGSSVKVSCKASGGTFSSYAISWVRQAPGQGLEWMGGIIPILGTANYAQKFQGRVTITADESTSTAYMELSSLRSEDTAVYYCARDRPPGAQFDTWGQGTLVTVSS
VL: not shown
binding result [1]: binds

B3: D2-06-N2 (IGHV1-69*01 germline-reverted) variant T56I (antibody, V domains shown)
VH: QVQLVQSGAEVKKPGSSVKVSCKASGGTFSSYAISWVRQAPGQGLEWMGGIIPIFGIANYAQKFQGRVTITADESTSTAYMELSSLRSEDTAVYYCARDRPPGAQFDTWGQGTLVTVSS
VL: not shown
binding result [1]: binds

B4: D2-06-N2 (IGHV1-69*01 germline-reverted) variant G50R (antibody, V domains shown)
VH: QVQLVQSGAEVKKPGSSVKVSCKASGGTFSSYAISWVRQAPGQGLEWMGRIIPIFGTANYAQKFQGRVTITADESTSTAYMELSSLRSEDTAVYYCARDRPPGAQFDTWGQGTLVTVSS
VL: not shown
binding result [2]: no binding

B5: D4-30-N2 (antibody, V domains shown)
VH: QVQLVQSGSEVKKPGSSVTLSCKASGDTFNTHTYSWVRQAPGQRLEWIGGIMPIFAASKSAPHLQDRLTITANKATRTAYMELTSLTSDDSGVYYCARDGRGALQYWGQGTLVTVSS
VL: DIVMTQSPLSLPVTLGQPASISCSSAQSLVHSDGDSYLTWFHQRPGQSPRRLIYKVSIRDAGVPDRFSGSGSGTDFTLKISRVEAEDVGVYYCMQATHWPYTFGQGTKLEIK
binding result [3]: binds

B6: D4-30-N2 antibody (human IgG) (antibody, V domains shown)
VH: QVQLVQSGSEVKKPGSSVTLSCKASGDTFNTHTYSWVRQAPGQRLEWIGGIMPIFAASKSAPHLQDRLTITANKATRTAYMELTSLTSDDSGVYYCARDGRGALQYWGQGTLVTVSS
VL: DIVMTQSPLSLPVTLGQPASISCSSAQSLVHSDGDSYLTWFHQRPGQSPRRLIYKVSIRDAGVPDRFSGSGSGTDFTLKISRVEAEDVGVYYCMQATHWPYTFGQGTKLEIK
binding result (IsdB NEAT2 domain): binds | binding result [1]: binds

B7: D4-10-N1 (antibody, V domains shown)
VH: QVQLQESGPGLVKPSETLSLICTVSGGSISSSSYYWGWIRQTPERNLEWIGIIYFSGTTYYNPSLQSRVSMSLDRSTNRFSLRLSSVTAADTAIYYCAKPKSRDRGGPGDDYFGMDVWGQGIMVTVSS
VL: DIQLTQSPSFLSASVADRVTITCRASQAVRSSLAWYQQKPGKAPQLLIYSASTLENGVSSRFSGSGPGTEFTLTISSLQPEDVGTYYCQQLNTYPFTFGPGTKVEIK
binding result [4]: binds | Kd [5]: < 1 pM

B8: germlined D4-10 (NEAT1) (antibody, V domains shown)
VH: QLQLQESGPGLVKPSETLSLTCTVSGGSISSSSYYWGWIRQPPGKGLEWIGSIYYSGSTYYNPSLKSRVTISVDTSKNQFSLKLSSVTAADTAVYYCAKPKSRDRGGPGDDYFGMDVWGQGIMVTVSS
VL: DIQLTQSPSFLSASVADRVTITCRASQAVRSSLAWYQQKPGKAPQLLIYSASTLENGVSSRFSGSGPGTEFTLTISSLQPEDVGTYYCQQLNTYPFTFGPGTKVEIK
binding result [6]: binds

B9: D4-10-N1 antibody (human IgG) (antibody, V domains shown)
VH: QVQLQESGPGLVKPSETLSLICTVSGGSISSSSYYWGWIRQTPERNLEWIGIIYFSGTTYYNPSLQSRVSMSLDRSTNRFSLRLSSVTAADTAIYYCAKPKSRDRGGPGDDYFGMDVWGQGIMVTVSS
VL: DIQLTQSPSFLSASVADRVTITCRASQAVRSSLAWYQQKPGKAPQLLIYSASTLENGVSSRFSGSGPGTEFTLTISSLQPEDVGTYYCQQLNTYPFTFGPGTKVEIK
binding result [7]: binds

B10: D4-10-N1 germline-reverted (IGHV4-39) (antibody, V domains shown)
VH: QLQLQESGPGLVKPSETLSLTCTVSGGSISSSSYYWGWIRQPPGKGLEWIGSIYYSGSTYYNPSLKSRVTISVDTSKNQFSLKLSSVTAADTAVYYCAKPKSRDRGGPGDDYFGMDVWGQGIMVTVSS
VL: DIQLTQSPSFLSASVADRVTITCRASQAVRSSLAWYQQKPGKAPQLLIYSASTLENGVSSRFSGSGPGTEFTLTISSLQPEDVGTYYCQQLNTYPFTFGPGTKVEIK
binding result [7]: binds
